Experimental findings from PMC8103107, “Myeloid‐resident neuropilin‐1 promotes choroidal neovascularization while mitigating inflammation” (EMBO Molecular Medicine, 2021) are described below.

This assay addresses T1, recombinant NRP1-derived trap consisting of the extracellular domain of NRP1 (UniProt O14786 22-856).
T1 construct: also called soluble NRP1; soluble receptor Neuropilin-1; source: purified recombinant
T1 sequence (looked up): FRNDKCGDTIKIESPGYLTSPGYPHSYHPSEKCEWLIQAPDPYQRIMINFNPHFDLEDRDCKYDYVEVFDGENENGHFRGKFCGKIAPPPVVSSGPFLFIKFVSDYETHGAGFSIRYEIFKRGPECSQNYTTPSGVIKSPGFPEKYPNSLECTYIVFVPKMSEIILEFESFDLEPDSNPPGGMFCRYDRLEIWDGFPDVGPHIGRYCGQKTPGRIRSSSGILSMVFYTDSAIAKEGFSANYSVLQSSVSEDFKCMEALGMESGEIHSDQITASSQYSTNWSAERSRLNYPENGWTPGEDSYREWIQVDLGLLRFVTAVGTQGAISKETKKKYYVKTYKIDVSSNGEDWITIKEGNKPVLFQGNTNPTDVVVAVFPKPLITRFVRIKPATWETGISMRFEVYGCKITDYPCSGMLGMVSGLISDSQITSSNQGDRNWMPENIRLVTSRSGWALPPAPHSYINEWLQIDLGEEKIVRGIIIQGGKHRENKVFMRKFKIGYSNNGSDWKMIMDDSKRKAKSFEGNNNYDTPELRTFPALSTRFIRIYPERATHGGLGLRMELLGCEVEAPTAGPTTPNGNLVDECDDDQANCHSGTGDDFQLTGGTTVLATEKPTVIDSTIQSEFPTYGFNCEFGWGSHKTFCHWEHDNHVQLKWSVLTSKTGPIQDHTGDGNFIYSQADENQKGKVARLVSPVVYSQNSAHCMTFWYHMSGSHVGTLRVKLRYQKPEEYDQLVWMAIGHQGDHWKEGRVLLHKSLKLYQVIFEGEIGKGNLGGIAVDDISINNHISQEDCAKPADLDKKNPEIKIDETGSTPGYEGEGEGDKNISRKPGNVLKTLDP
The experiment in a line: SPR; Biacore T200; trap immobilised by amine coupling on a CM4 chip (100-150 RU); SEMA3A or VEGF-A injected at 12.5-100 nM, 40 ul/min, PBS with 0.025% (v/v) Tween-20; global fit to a one-site Langmuir binding model. The settings on record: both partners purified.

B1: Semaphorin 3A (ligand, UniProt Q14563 21-771, looked up)
chain: NYQNGKNNVPRLKLSYKEMLESNNVITFNGLANSSSYHTFLLDEERSRLYVGAKDHIFSFDLVNIKDFQKIVWPVSYTRRDECKWAGKDILKECANFIKVLKAYNQTHLYACGTGAFHPICTYIEIGHHPEDNIFKLENSHFENGRGKSPYDPKLLTASLLIDGELYSGTAADFMGRDFAIFRTLGHHHPIRTEQHDSRWLNDPKFISAHLISESDNPEDDKVYFFFRENAIDGEHSGKATHARIGQICKNDFGGHRSLVNKWTTFLKARLICSVPGPNGIDTHFDELQDVFLMNFKDPKNPVVYGVFTTSSNIFKGSAVCMYSMSDVRRVFLGPYAHRDGPNYQWVPYQGRVPYPRPGTCPSKTFGGFDSTKDLPDDVITFARSHPAMYNPVFPMNNRPIVIKTDVNYQFTQIVVDRVDAEDGQYDVMFIGTDVGTVLKVVSIPKETWYDLEEVLLEEMTVFREPTAISAMELSTKQQQLYIGSTAGVAQLPLHRCDIYGKACAECCLARDPYCAWDGSACSRYFPTAKRRTRRQDIRNGDPLTHCSDLHHDNHHGHSPEERIIYGVENSSTFLECSPKSQRALVYWQFQRRNEERKEEIRVDDHIIRTDQGLLLRSLQQKDSGNYLCHAVEHGFIQTLLKVTLEVIDTEHLEELLHKDDDGDGSKTKEMSNSMTPSQKVWYRDFMQLINHPNLNTMDEFCEQVWKRDRKQRRQRPGHTPGNSNKWKHLQENKKGRNRRTHEFERAPRSV
notes: Semaphorin 3A (SEMA3A), injected as analyte in SPR; also called SEMA3A; Sema3A
One may read the Kd as the constant that tells how readily two partners part at equilibrium. Take B1: the Kd is 0.67 nM.

B2: vascular endothelial growth factor A (ligand)
chain: APMAEGGGQNHHEVVKFMDVYQRSYCHPIETLVDIFQEYPDEIEYIFKPSCVPLMRCGGCCNDEGLECVPTEESNITMQIMRIKPHQGQHIGEMSFLQHNKCECRPKKDRARQENPCGPCSERRKHLFVQDPQTCKCSCKNTDSRCKARQLELNERTCRCDKPRR
modifications: Assumed to be VEGF165, the customary recombinant product, because the isoform is not printed. Mature residues 1-165 equal entry residues 207-395 with the exon 6a region 321-345 replaced by the …
As for B2, the Kd stood at 4.32 nM.
